Results published in patent publication CN115710309A (INST PASTEUR SHANGHAI CAS, dated 2023).

Assays:
Assay in all cases: cell-based or functional assay
[1] = target: SARS-CoV-2 B.1.351突变株S蛋白 (假病毒) (SARS-CoV-2, UniProt P0DTC2 14-1273)
[2] = target: SARS-CoV-2 B.1.617.1突变株S蛋白 (假病毒) (SARS-CoV-2, UniProt P0DTC2 14-1273)
[3] = target: SARS-CoV-2 B.1.617.2突变株S蛋白 (假病毒) (SARS-CoV-2, UniProt P0DTC2 14-1273)

Binder	假病毒中和 IC50 [1] [ng/mL]	假病毒中和 IC50 [2] [ng/mL]	假病毒中和 IC50 [3] [ng/mL]
单抗2G3 (antibody) heavy: QVQLQQPGAELVKPGASVKMSCKASGYTFTTYTIHWLRQTPGQGLEWIGAIYPGIGDTSYNQSFKGKATLTADKSSSTAYMQLSSLTSEDSAVYYCARDGNYAPFTYWGQGTLVTVSAAKTTPPSVYPLAPGSAAQTNSMVTLGCLVKGYFPEPVTVTWNSGSLSSGVHTFPAVLQSDLYTLSSSVTVPSSTWPSETVTCNVAHPASSTKVDKKIVPRDCGCKPCICTVPEVSSVFIFPPKPKDVLTITLTPKVTCVVVDISKDDPEVQFSWFVDDVEVHTAQTQPREEQFNSTFRSVSELPIMHQDWLNGKEFKCRVNSAAFPAPIEKTISKTKGRPKAPQVYTIPPPKEQMAKDKVSLTCMITDFFPEDITVEWQWNGQPAENYKNTQPIMDTDGSYFVYSKLNVQKSNWEAGNTFTCSVLHEGLHNHHTEKSLSHSPGK light: DIVMSQSPSSLAVSVGEKVTMSCKSSQSLLYSNNQKNYLAWYQQKPGQSPKLLIYWTSTRESGVPDRFTGSGSGTDFTLTINSVKAEDLAVYYCQQYYRYPLTVGAGTKLELKRADAAPTVSIFPPSSEQLTSGGASVVCFLNNFYPKDINVKWKIDGSERQNGVLNSWTDQDSKDSTYSMSSTLTLTKDEYERHNSYTCEATHKTSTSPIVKSFNRNEC	4	1	84
单抗8D3 (antibody, V domains shown) VH: EVQLQQSGPELVKPGASVKISCKTSGYTFTEYTMYWVKQSHGKSLEWIGGINPNIGDTSYNQNFKGKATLTVDRSSSTAYMELRSLTSEDSAVYYCARDGYPYYYALDHWGQGTSVTVSS VL: DIVMTQSQKFMSTSVGDRVSVTCKASQNVGTNVAWYQQKPGQSPKALIYSTSYRYSGVPDRFTGSGSGTDFTLTISNVQSEDLAEYFCQQYNSYPYTFGGGTKLEIKR	6	2	8
